Measured values: US8597660B2, “Therapeutic approach to neurodegenerative disorders using a TFP5-peptide” (The United States of America, as represented by the …, priority 2010, dated 2013)
Entries after “also recorded” stand apart in the source; their conditions may differ.

Tests used:
Cdk5/P25 [1] = target: T1, Cdk5/P25 (Rattus norvegicus, UniProt Q03114); assay: In vitro kinase assay on Cdk5 immunoprecipitates of Aβ1-42-treated cortical neurons with added P5 peptide; format: biochemical; conditions: P5 0.45 μM or above
T1 construct: endogenous in cells; host or cells: E-18 rat cortical neurons treated with 10 uM Abeta1-42
Experimental: Kinase assays were performed as previously described (Veeranna, et al., J Neurosci 18(11), 4008-4021, 1998). Briefly, 7 days in culture (7 DIC) primary rat cortical neurons were infected with P25, P35, Cdk5 wild-type, dominant negative-Cdk5 and P5 using the lentiviral gene delivery as described earlier. Cdk5 was immunoprecipitated using the polyclonal C8 antibody overnight at 4° C. and immunoglobulin isolated using Protein A sepharose beads for 2 hours at 4° C. Immunoprecipitates were washed three times with lysis buffer and then once with 1× kinase buffer containing 20 mM Tris-Cl pH 7.4, 1 mM EDTA, 1 mM EGTA, 10 mM MgCl2, 10 mM sodium fluoride and 1 mM sodium orthovanadate. Endogenous Cdks were immunoprecipitated from HEK 293 cells using their respective antibodies and treated as above. Kinase assays were performed in the same buffer containing 1 mM DTT, 0.1 mM ATP and 0.185 MBq [γ-32P] ATP with 20 μg of histone H1 as the substrate. […]
To determine the minimum dose at which the P5 peptide is an efficient inhibitor of Cdk5/P25 hyperactivity under physiological conditions, cortical neurons were treated with Aβ1-42 to induce the expression of P25 and Cdk5 hyperactivation, Cdk5 immunoprecipitates were prepared and the effect of different concentrations of P5 was evaluated (FIG. 6).

[2] = system: Cdc2, Cdk2, Cdk4, and Cdk6; assay: Kinase pad assay on Cdk immunoprecipitates of untreated HEK293 lysates with added P5 peptide; format: biochemical, human; conditions: P5 peptide up to 1.8 μM; roscovitine 20 μM
Experimental: (§1) Briefly, 7 days in culture (7 DIC) primary rat cortical neurons were infected with P25, P35, Cdk5 wild-type, dominant negative-Cdk5 and P5 using the lentiviral gene delivery as described earlier. Cdk5 was immunoprecipitated using the polyclonal C8 antibody overnight at 4° C. and immunoglobulin isolated using Protein A sepharose beads for 2 hours at 4° C. Immunoprecipitates were washed three times with lysis buffer and then once with 1× kinase buffer containing 20 mM Tris-Cl pH 7.4, 1 mM EDTA, 1 mM EGTA, 10 mM MgCl2, 10 mM sodium fluoride and 1 mM sodium orthovanadate. Endogenous Cdks were immunoprecipitated from HEK 293 cells using their respective antibodies and treated as above. […] ATP with 20 μg of histone H1 as the substrate. Phosphorylation was performed in a final volume of […] incubated at 30° C. for 60 minutes, stopped by the addition of 10% SDS sample buffer and heating at 95° C. for 5 minutes. Samples were separated by SDS-PAGE, gels were stained with Coomassie, destained, dried and exposed to autoradiography. In pad assays, 25 μl aliquots of the incubation mixture were placed on a Whatman p80 paper square, washed and dried and placed in a scintillation vial for counting.

[3] = system: Cdc2, Cdk2, Cdk4, and Cdk6; assay: Kinase assay of cell cycle Cdk immunoprecipitates from HEK293 cells infected with P5-myc or treated with roscovitine; format: cell-based, human; conditions: HEK293 cells infected with P5-myc or treated with 20 μM roscovitine
Experimental: as §1

Cdk5/P25 [4] = target: Cdk5/P25 (Homo sapiens, UniProt Q00535); assay: Kinase assay of Cdk5 immunoprecipitates from cortical neurons infected with Cdk5/P25 with or without P5; format: cell-based; set-up: expressed in transfected cells; host or cells: E-18 rat cortical neurons, adenoviral infection (pAdTrack-CMV / AdEasy); conditions: E-18 rat cortical neurons co-infected with P5
Experimental: Primary cultures of rat cortical neurons were prepared from E-18 rat fetuses as described previously (Zheng et al., J Biol Chem 278(26), 24026-24032, 2003). After 7 days, cells were infected independently or co-infected with empty vector (EV), the constructs of P5, P25, P35, wild-type Cdk5 and dominant negative Cdk5 (changing Lys33 to Thr33) using the Adenoviral vector (pAdTrack-CMV) packaging system as described above. […] The cells were fixed for immunocytochemistry analyses (ICC) or lysed with lysis buffer for immunoprecipitation and Western blot analyses. Cortical neuron cultures were prepared and plated on the cover slips as described. Human embryo kidney cells (HEK293) were grown as described previously (Zheng et al., Eur J Biochem 269(18), 4427-4434, 2002). In these studies HEK293 cells on day 1, or neurons on day 5, were transfected with or without Myc-P5-GFP using Lipofectamine 2000 following the manufacturer's instructions.
Kinase assays were performed as previously described (Veeranna, et al., J Neurosci 18(11), 4008-4021, 1998). Briefly, 7 days in culture (7 DIC) primary rat cortical neurons were infected with P25, P35, Cdk5 wild-type, dominant negative-Cdk5 and P5 using the lentiviral gene delivery as described earlier. […]

T1 sequence (Q03114 whole entry): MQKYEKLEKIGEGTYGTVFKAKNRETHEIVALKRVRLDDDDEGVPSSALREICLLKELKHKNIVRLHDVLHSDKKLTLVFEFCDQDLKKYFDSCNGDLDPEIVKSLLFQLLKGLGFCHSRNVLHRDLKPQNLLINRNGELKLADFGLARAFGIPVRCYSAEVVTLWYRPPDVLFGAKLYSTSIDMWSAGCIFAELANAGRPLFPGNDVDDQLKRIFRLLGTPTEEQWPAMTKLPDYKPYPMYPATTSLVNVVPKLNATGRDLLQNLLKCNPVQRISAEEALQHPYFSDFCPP
Chain of Cdk5/P25 (Homo sapiens, UniProt Q00535) (Q00535 whole entry, species assumed): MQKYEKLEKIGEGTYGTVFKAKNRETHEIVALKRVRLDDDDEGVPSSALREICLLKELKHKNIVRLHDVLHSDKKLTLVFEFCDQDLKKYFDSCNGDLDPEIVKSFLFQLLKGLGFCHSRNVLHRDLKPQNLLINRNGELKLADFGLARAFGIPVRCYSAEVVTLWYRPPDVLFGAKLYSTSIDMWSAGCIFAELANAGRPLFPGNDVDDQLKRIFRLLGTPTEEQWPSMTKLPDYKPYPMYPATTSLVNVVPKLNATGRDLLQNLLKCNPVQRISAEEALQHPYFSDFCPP

- Aβ1-42-induced Cdk5 hyperactivity (Cdk5/P25 [1]): totally eliminated
- Decrease of Cdk5 activity in neurons infected with Cdk5/P25 (Cdk5/P25 [4]): more than 90%
Substance: P5: 24 residue peptide derived from Cdk5 activator P35 (K254-A277 of SEQ ID NO: 16); Cdk5 inhibitory peptide (KEAFWDRCLSVINLMSSKMLQINA; listed as Homo sapiens)
- Inhibition of cell cycle Cdk activities in vitro [2]: virtually no inhibition; also recorded: minimal inhibition of Cdc2 and Cdk4 activities
- Inhibition of endogenous cell cycle Cdk activity [3]: virtually no effect; also recorded: no inhibition in all cases; also recorded: unaffected by P5
